Experimental data published in patent publication US20210353708A1.
Where no end group is shown, it is not given here. [ ]: non-standard residue; d: D form.

How the values were obtained:
[1] = molecular target: recombinant BΔg protein (recombinant human brevican, enzymatically deglycosylated, His-tagged) (human) (UniProt Q96GW7); assay: BLI (Octet RED), His-tagged BΔg on Ni-NTA sensors, peptide in solution, steady state analysis
[2] = molecular target: recombinant BΔg protein (recombinant human brevican, enzymatically deglycosylated, His-tagged) (human) (UniProt Q96GW7); assay: BLI (Octet RED), steady state analysis

recombinant BΔg protein (recombinant human brevican, enzymatically deglycosylated, His-tagged) (human), sequence (Q96GW7 23-911, stated change not applied, form in doubt): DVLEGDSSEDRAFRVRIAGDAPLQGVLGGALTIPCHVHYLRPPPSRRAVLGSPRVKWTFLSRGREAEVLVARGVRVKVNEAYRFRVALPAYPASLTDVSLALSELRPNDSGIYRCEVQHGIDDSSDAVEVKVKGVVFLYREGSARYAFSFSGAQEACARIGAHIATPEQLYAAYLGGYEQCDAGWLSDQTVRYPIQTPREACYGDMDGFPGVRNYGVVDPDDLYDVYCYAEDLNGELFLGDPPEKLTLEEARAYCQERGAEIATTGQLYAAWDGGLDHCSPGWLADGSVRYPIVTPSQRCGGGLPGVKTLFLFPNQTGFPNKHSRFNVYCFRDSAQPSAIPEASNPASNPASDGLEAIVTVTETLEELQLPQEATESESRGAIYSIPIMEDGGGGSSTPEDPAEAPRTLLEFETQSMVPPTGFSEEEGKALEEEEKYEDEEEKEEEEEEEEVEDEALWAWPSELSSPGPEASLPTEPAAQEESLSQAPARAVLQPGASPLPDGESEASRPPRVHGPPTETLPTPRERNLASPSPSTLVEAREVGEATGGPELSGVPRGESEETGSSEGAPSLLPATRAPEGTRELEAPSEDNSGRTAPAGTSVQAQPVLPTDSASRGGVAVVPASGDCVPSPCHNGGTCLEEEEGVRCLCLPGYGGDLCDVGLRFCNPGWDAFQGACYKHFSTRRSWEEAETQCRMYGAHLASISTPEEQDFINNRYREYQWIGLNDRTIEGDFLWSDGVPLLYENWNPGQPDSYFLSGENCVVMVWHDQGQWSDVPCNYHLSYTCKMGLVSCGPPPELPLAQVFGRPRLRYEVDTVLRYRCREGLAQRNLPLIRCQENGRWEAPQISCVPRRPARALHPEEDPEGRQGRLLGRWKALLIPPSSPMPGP

Binder	Kd [1]	fold lower binding affinity than the unlabeled BTP-7 [2]
[dT][dI][dR][dK][dL][dV][dR][dH]-NH2 (N-terminus assumed; SMILES CC[C@@H](C)[C@@H](NC(=O)[C@H](N)[C@H](C)O)C(=O)N[C@H](CCCNC(=N)N)C(=O)N[C@H](CCCCN)C(=O)N[C@H](CC(C)C)C(=O)N[C@@H](C(=O)N[C@H](CCCNC(=N)N)C(=O)N[C@H](Cc1c[nH]cn1)C(N)=O)C(C)C) [BTP-8, not labeled with a fluorophore]	1.57 µM	
[dA][dD][dR][dR][dQ][dR][dA][dI]-NH2 (N-terminus assumed; SMILES CC[C@@H](C)[C@@H](NC(=O)[C@@H](C)NC(=O)[C@@H](CCCNC(=N)N)NC(=O)[C@@H](CCC(N)=O)NC(=O)[C@@H](CCCNC(=N)N)NC(=O)[C@@H](CCCNC(=N)N)NC(=O)[C@@H](CC(=O)O)NC(=O)[C@@H](C)N)C(N)=O) [BTP-9, not labeled with a fluorophore]	1.5 µM	
[dT][dK][dW]G[dH][dV][dN][dK] (not fully specified (C-terminus); also: FITC on side chain of C-terminal Lys: own Lys8 or an added Lys, not given here) [BTP-7 conjugated to a fluorescein dye]	3.8 µM	> 10 fold
